From patent US20110046068A1 (MEDICAL RESEARCH COUNCIL, published 2011)
Non-standard residues stand in square brackets, D forms with d.

Assays:
[1] = molecular target: T1, human gpr-54 receptor (human, UniProt Q969F8 1-398); experiment: cell-based or functional assay
[2] = molecular target: T1, human gpr-54 receptor; experiment: cell-based or functional assay; remark: listed apart in the source
[3] = molecular target: T1, human gpr-54 receptor; experiment: cell-based or functional assay; remark: listed apart in the source
[4] = molecular target: T1, human gpr-54 receptor; experiment: cell-based or functional assay; remark: listed apart in the source
[5] = molecular target: T1, human gpr-54 receptor; experiment: cell-based or functional assay; remark: listed apart in the source
[6] = molecular target: T1, human gpr-54 receptor; experiment: whole-cell competition binding against 125I-kisspeptin, CHO cells stably transfected with GPR54 (CPM); the fall of the curve lies between Total and -10 LogM [201]
Method: Cell monolayers were placed on ice and exposed to 0.5 mls peptide (10 pM-1 uM); the cells were then incubated at 4° C. for 4 hr. After 4 hrs, cells were washed twice with ice cold Dulbecco's phosphate buffered saline (DPBS; with Calcium and Magnesium) and then 0.5 mls 0.1M Sodium Hydroxide (NaOH) were added to cells for 20 minutes, shaking to lyse cells. Lysates were transferred to plastic tubes and bound radioactivity counted on the gamma counter for 60 seconds.

T1 sequence (Q969F8 whole entry): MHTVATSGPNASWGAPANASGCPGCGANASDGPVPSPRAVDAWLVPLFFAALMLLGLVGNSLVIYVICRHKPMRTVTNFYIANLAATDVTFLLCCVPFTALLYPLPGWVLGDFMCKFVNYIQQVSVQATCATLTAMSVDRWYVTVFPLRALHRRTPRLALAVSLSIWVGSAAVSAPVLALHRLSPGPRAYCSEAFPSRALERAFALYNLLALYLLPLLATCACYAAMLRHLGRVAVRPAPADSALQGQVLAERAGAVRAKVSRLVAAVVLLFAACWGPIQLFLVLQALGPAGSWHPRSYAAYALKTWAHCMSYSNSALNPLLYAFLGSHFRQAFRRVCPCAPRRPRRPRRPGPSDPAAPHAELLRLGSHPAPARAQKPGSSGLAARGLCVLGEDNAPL

| IP stimulation (IC50), peptide alone [1] [nM] | Inhibition of IP stimulation by 10nM Agonist: % Inhibition of Max [1] [%] | Inhibition of IP stimulation by 10nM Agonist: IC50 [1] [nM] | Binder | other results |
| --- | --- | --- | --- | --- |
| 1500 | 57 | 0.05 | Ac-[dA]NWN[dA]FGLRF-NH2 (SMILES CC(=O)N[C@H](C)C(=O)N[C@@H](CC(N)=O)C(=O)N[C@@H](Cc1c[nH]c2ccccc12)C(=O)N[C@@H](CC(N)=O)C(=O)N[C@H](C)C(=O)N[C@@H](Cc1ccccc1)C(=O)NCC(=O)N[C@@H](CC(C)C)C(=O)N[C@@H](CCCNC(=N)N)C(=O)N[C@@H](Cc1ccccc1)C(N)=O) [277] | – |
| – | 80 | 50 | Ac-[dA]NWNG[dW]G[dW]RF-NH2 (SMILES CC(=O)N[C@H](C)C(=O)N[C@@H](CC(N)=O)C(=O)N[C@@H](Cc1c[nH]c2ccccc12)C(=O)N[C@@H](CC(N)=O)C(=O)NCC(=O)N[C@H](Cc1c[nH]c2ccccc12)C(=O)NCC(=O)N[C@H](Cc1c[nH]c2ccccc12)C(=O)N[C@@H](CCCNC(=N)N)C(=O)N[C@@H](Cc1ccccc1)C(N)=O) [246] | – |
| – | 64 | 5000 | Ac-[dA]NWNGFGWRF-NH2 (SMILES CC(=O)N[C@H](C)C(=O)N[C@@H](CC(N)=O)C(=O)N[C@@H](Cc1c[nH]c2ccccc12)C(=O)N[C@@H](CC(N)=O)C(=O)NCC(=O)N[C@@H](Cc1ccccc1)C(=O)NCC(=O)N[C@@H](Cc1c[nH]c2ccccc12)C(=O)N[C@@H](CCCNC(=N)N)C(=O)N[C@@H](Cc1ccccc1)C(N)=O) [248] | – |
| 5 | 0 | – | Ac-[dY][dN]WNSFGWRF-NH2 (SMILES CC(=O)N[C@H](Cc1ccc(O)cc1)C(=O)N[C@H](CC(N)=O)C(=O)N[C@@H](Cc1c[nH]c2ccccc12)C(=O)N[C@@H](CC(N)=O)C(=O)N[C@@H](CO)C(=O)N[C@@H](Cc1ccccc1)C(=O)NCC(=O)N[C@@H](Cc1c[nH]c2ccccc12)C(=O)N[C@@H](CCCNC(=N)N)C(=O)N[C@@H](Cc1ccccc1)C(N)=O) [239] | IP dose response, peptide alone: EC50 (unlabelled number beside rising curve) [239] [2]: 4.99 nM |
| 6400 | 0 | – | Ac-[dY]NWNGFGWRF-NH2 (SMILES CC(=O)N[C@H](Cc1ccc(O)cc1)C(=O)N[C@@H](CC(N)=O)C(=O)N[C@@H](Cc1c[nH]c2ccccc12)C(=O)N[C@@H](CC(N)=O)C(=O)NCC(=O)N[C@@H](Cc1ccccc1)C(=O)NCC(=O)N[C@@H](Cc1c[nH]c2ccccc12)C(=O)N[C@@H](CCCNC(=N)N)C(=O)N[C@@H](Cc1ccccc1)C(N)=O) [237] | IP dose response, peptide alone: EC50 (unlabelled number beside rising curve) [237] [3]: 6380 nM |
| – | 47 | > 100 | Ac-[dA]NWNGFGL[dR]F-NH2 [278] | – |
| 2800 | 0 | – | Ac-[dY]NWNSFG[dW]RF-NH2 (SMILES CC(=O)N[C@H](Cc1ccc(O)cc1)C(=O)N[C@@H](CC(N)=O)C(=O)N[C@@H](Cc1c[nH]c2ccccc12)C(=O)N[C@@H](CC(N)=O)C(=O)N[C@@H](CO)C(=O)N[C@@H](Cc1ccccc1)C(=O)NCC(=O)N[C@H](Cc1c[nH]c2ccccc12)C(=O)N[C@@H](CCCNC(=N)N)C(=O)N[C@@H](Cc1ccccc1)C(N)=O) [238] | IP dose response, peptide alone: EC50 (unlabelled number beside rising curve) [238] [3]: 2820 nM |
| 21 | 44 | > 100 | Ac-[dA]NWN[dP]FG[dW]RF-NH2 (SMILES CC(=O)N[C@H](C)C(=O)N[C@@H](CC(N)=O)C(=O)N[C@@H](Cc1c[nH]c2ccccc12)C(=O)N[C@@H](CC(N)=O)C(=O)N1CCC[C@@H]1C(=O)N[C@@H](Cc1ccccc1)C(=O)NCC(=O)N[C@H](Cc1c[nH]c2ccccc12)C(=O)N[C@@H](CCCNC(=N)N)C(=O)N[C@@H](Cc1ccccc1)C(N)=O) [275] | – |
| – | 66 | 10000 | Ac-[dY]NWNG[dW]G[dW]RF-NH2 (SMILES CC(=O)N[C@H](Cc1ccc(O)cc1)C(=O)N[C@@H](CC(N)=O)C(=O)N[C@@H](Cc1c[nH]c2ccccc12)C(=O)N[C@@H](CC(N)=O)C(=O)NCC(=O)N[C@H](Cc1c[nH]c2ccccc12)C(=O)NCC(=O)N[C@H](Cc1c[nH]c2ccccc12)C(=O)N[C@@H](CCCNC(=N)N)C(=O)N[C@@H](Cc1ccccc1)C(N)=O) [245] | – |
| – | 65 | 0.001 | Ac-[dA]NWNGFG[dL]RF-NH2 (SMILES CC(=O)N[C@H](C)C(=O)N[C@@H](CC(N)=O)C(=O)N[C@@H](Cc1c[nH]c2ccccc12)C(=O)N[C@@H](CC(N)=O)C(=O)NCC(=O)N[C@@H](Cc1ccccc1)C(=O)NCC(=O)N[C@H](CC(C)C)C(=O)N[C@@H](CCCNC(=N)N)C(=O)N[C@@H](Cc1ccccc1)C(N)=O) [276] | – |
| – | 80 | 8 | Ac-[dA]NWNSFG[dW]RF-NH2 (SMILES CC(=O)N[C@H](C)C(=O)N[C@@H](CC(N)=O)C(=O)N[C@@H](Cc1c[nH]c2ccccc12)C(=O)N[C@@H](CC(N)=O)C(=O)N[C@@H](CO)C(=O)N[C@@H](Cc1ccccc1)C(=O)NCC(=O)N[C@H](Cc1c[nH]c2ccccc12)C(=O)N[C@@H](CCCNC(=N)N)C(=O)N[C@@H](Cc1ccccc1)C(N)=O) [247] | – |
| – | 39 | – | Ac-[dY][dN]WNGFGWRF-NH2 [240] | – |
| – | 15 | – | Ac-[dY][dN]WNGFG[dW]RF-NH2 (also: further groups not given here) [242] | – |
| – | 24 | – | Ac-[dY][dN]WNSFG[dW]RF-NH2 [241] | – |
| 530000 | 73 | 0.1 | Ac-[dA]NWNPFG[dW]RF-NH2 (SMILES CC(=O)N[C@H](C)C(=O)N[C@@H](CC(N)=O)C(=O)N[C@@H](Cc1c[nH]c2ccccc12)C(=O)N[C@@H](CC(N)=O)C(=O)N1CCC[C@H]1C(=O)N[C@@H](Cc1ccccc1)C(=O)NCC(=O)N[C@H](Cc1c[nH]c2ccccc12)C(=O)N[C@@H](CCCNC(=N)N)C(=O)N[C@@H](Cc1ccccc1)C(N)=O) [274] | – |
| 20000 | 79 | – | Ac-FG[dL]RW-NH2 [191] | IP dose response, peptide alone: EC50 (unlabelled number beside rising curve) [191] [4]: 26100 nM |
| – | 60 | 10 | Ac-[dF]NWNGFG[dW]RF-NH2 (SMILES CC(=O)N[C@H](Cc1ccccc1)C(=O)N[C@@H](CC(N)=O)C(=O)N[C@@H](Cc1c[nH]c2ccccc12)C(=O)N[C@@H](CC(N)=O)C(=O)NCC(=O)N[C@@H](Cc1ccccc1)C(=O)NCC(=O)N[C@H](Cc1c[nH]c2ccccc12)C(=O)N[C@@H](CCCNC(=N)N)C(=O)N[C@@H](Cc1ccccc1)C(N)=O) [244] | – |
| – | 55 | 10 | Ac-[dW]NWNGFG[dW]RF-NH2 (SMILES CC(=O)N[C@H](Cc1c[nH]c2ccccc12)C(=O)N[C@@H](CC(N)=O)C(=O)N[C@@H](Cc1c[nH]c2ccccc12)C(=O)N[C@@H](CC(N)=O)C(=O)NCC(=O)N[C@@H](Cc1ccccc1)C(=O)NCC(=O)N[C@H](Cc1c[nH]c2ccccc12)C(=O)N[C@@H](CCCNC(=N)N)C(=O)N[C@@H](Cc1ccccc1)C(N)=O) [243] | – |
| – | 69 | 7 | Ac-FGARW-NH2 (kisspeptin-10 analogue; also called acFGARW) [201] | IP competition with 10nM kisspeptin-10: IC50 [201] [5]: 7 nM; IC50 [6]: 0.00432 nM |
| – | 57 | 5 | Ac-RRMKWKKY[dA]NWNGFG[dW]RF-NH2 [Peptide 271] | – |
